Numbering of substitutions follows the chain as printed. Names and notes keep the numbering of the source.
B1: FtsA^M71A with Q155C (natural protein, E. coli, UniProt P0ABH0 1-420, looked up)
chain: MIKATDRKLVVGLEIGTAKVAALVGEVLPDGMVNIIGVGSCPSRGMDKGGVNDLESVVKCVQRAIDQAELAADCQISSVYLALSGKHISCQNEIGMVPISEEEVTQEDVENVVHTAKSVRVRDEHRVLHVIPQEYAIDYQEGIKNPVGLSGVRMCAKVHLITCHNDMAKNIVKAVERCGLKVDQLIFAGLASSYSVLTEDERELGVCVVDIGGGTMDIAVYTGGALRHTKVIPYAGNVVTSDIAYAFGTPPSDAEAIKVRHGCALGSIVGKDESVEVPSVGGRPPRSLQRQTLAEVIEPRYTELLNLVNEEILQLQEKLRQQGVKHHLAAGIVLTGGAAQIEGLAACAQRVFHTQVRIGAPLNITGLTDYAQEPYYSTAVGLLHYGKESHLNGEAEVEKRVTASVGSWIKRLNSWLRKEF
notes: FtsA of E. coli with M71A and Q155C; M71A introduced into pWM7049 or pWM7239 by site-directed mutagenesis; I take them to be the Q155C and the R286W Q155C derivatives of pDSW210-FLAG-FtsA; source: E. coli, expressed from a plasmid, in cells (crosslinked in vivo)
B2: FLAG-FtsA^Q155C (natural protein, E. coli, UniProt P0ABH0 1-420, looked up)
chain: B1 chain with A71M
notes: FtsA of E. coli with Q155C, made by site-directed mutagenesis on pWM2785 (pDSW210-FLAG-FtsA); probably the whole FtsA reading frame, since it complements an ftsA null allele; also called pDSW210-FLAG-FtsA^Q155C; source: E. coli, expressed from pDSW210 with IPTG, in cells (crosslinked in vivo); not shown: FLAG, N-terminal, kept

Assays:
[1] = target: the molecule itself; test: cross-linking; in vivo cysteine crosslinking of E. coli cells in cold PBS with 0.5 mM BMB or BMH for 10 min, quenched with 40 mM BME; SDS-PAGE and anti-FtsA immunoblot; dividing cells (ftsZ84(ts) 10 and 20 min after return to 30°C; ftsQ1ts, zipA1ts and ftsA^o strains at 30°C, ftsA^o strain also at 42°C; WM4952 at 37°C; WM4953 ftsL*)
[2] = target: the molecule itself; test: cross-linking; in vivo cysteine crosslinking, ftsQ1(ts) strain WM7148 shifted to the nonpermissive 42°C; anti-FtsA immunoblot
[3] = target: the molecule itself; test: cross-linking; in vivo cysteine crosslinking, zipA1(ts) strain WM7149 shifted to the nonpermissive 42°C; anti-FtsA immunoblot

| Protein | DS filament crosslinking at Q155C relative to WT FtsA [1] | fold decrease of the crosslinked band at 42°C against 30°C [2] [fold] | fold decrease of the crosslinked band at 42°C against 30°C [3] [fold] |
| --- | --- | --- | --- |
| B1 | ~35 % of WT levels |  |  |
| B2 |  | 3 | 7.5 |
